Article PMC6768103, “Functional and structural characterization of HspB1/Hsp27 from Chinese hamster ovary cells” (FEBS Open Bio, 2019)

Columns and labels:
[1] = target: the molecule itself; test: SEC; mixture of CgHspB1WT (30 µM) and IPMDH incubated at 25 and 55 °C for 30 min and analysed at the same temperature; the 55 °C mixture also cooled and analysed at 25 °C
[2] = target: the molecule itself; test: SEC; SB-804HQ column on HPLC, buffer B with 20% ethylene glycol, 6 or 12 µM as monomer, heated 30 min at the specified temperature and run at the same temperature
[3] = target: T1, porcine heart citrate synthase (pig, UniProt P00889 28-464); test: SEC; mixture of CgHspB1WT (30 µM) and CS incubated at 55 °C for 30 min, cooled to 25 °C and analysed at 25 °C; conditions: both partners purified
T1 construct: citrate synthase from porcine heart; Client protein; the complex with CgHspB1 appeared only after heating at 55 °C (heat-denatured CS); also called CS
T1 sequence (looked up): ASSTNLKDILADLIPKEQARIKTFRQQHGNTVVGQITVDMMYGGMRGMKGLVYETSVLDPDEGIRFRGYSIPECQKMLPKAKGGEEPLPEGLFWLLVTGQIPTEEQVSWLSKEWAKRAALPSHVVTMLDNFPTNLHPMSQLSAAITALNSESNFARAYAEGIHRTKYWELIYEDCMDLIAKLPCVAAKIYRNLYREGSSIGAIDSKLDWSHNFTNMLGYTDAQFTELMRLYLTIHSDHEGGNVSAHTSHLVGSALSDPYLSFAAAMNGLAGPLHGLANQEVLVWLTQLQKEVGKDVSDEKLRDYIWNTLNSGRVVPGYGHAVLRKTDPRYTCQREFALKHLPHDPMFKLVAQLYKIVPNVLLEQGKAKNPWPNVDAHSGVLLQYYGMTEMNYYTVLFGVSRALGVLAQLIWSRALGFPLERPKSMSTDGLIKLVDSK

[4] = target: the molecule itself; test: SEC-MALS; TSKgel G3000XL column, buffer B (50 mM Tris/HCl pH 7.5, 0.1 mM EDTA, 150 mM NaCl), room temperature

Row | Binder | stoichiometry N [1] | stoichiometry N [2] | binding result [3] | stoichiometry N [4]
1 | isopropyl malate dehydrogenase from Thermus thermophilus HB8 (enzyme, UniProt Q5SIY4 1-345, looked up, isopropyl malate dehydrogenase (3-isopropylmalate dehydrogenase) from Thermus thermophilus HB8; also called IPMDH) MKVAVLPGDGIGPEVTEAALKVLRALDEAEGLGLAYEVFPFGGAAIDAFGEPFPEPTRKGVEEAEAVLLGSVGGPKWDGLPRKIRPETGLLSLRKSQDLFANLRPAKVFPGLERLSPLKEEIARGVDVLIVRELTGGIYFGEPRGMSEAEAWNTERYSKPEVERVARVAFEAARKRRKHVVSVDKANVLEVGEFWRKTVEEVGRGYPDVALEHQYVDAMAMHLVRSPARFDVVVTGNIFGDILSDLASVLPGSLGLLPSASLGRGTPVFEPVHGSAPDIAGKGIANPTAAILSAAMMLEHAFGLVELARKVEDAVAKALLETPPPDLGGSAGTEAFTATVLRHLA | 2 |  |  | 
2 | wild‐type CgHspB1 (HspB1/Hsp27 from Chinese hamster ovary cells) (natural protein, Chinese hamster (Cricetulus griseus), UniProt A0A8C2QII0 1-213, looked up, HspB1/Hsp27 of Chinese hamster (Cricetulus griseus), full-length gene amplified from total cDNA of CHO cells; deduced subunit mass 23.4 kDa; 16-mer at room temperature by SEC-MALS; the oligomer varies with temperature and concentration; also called CgHspB1WT; HspB1 from CHO cells; source: E. coli BL21 Star (DE3) / BL21 (DE3), pET23b, purified (DEAE, RESOURCE Q, Superdex 200); copies: 16) MTERRVPFSLLRSPSWEPFRDWYPAHSRLFDQAFGVPRLPDEWSQWFSAAGWPGYVRPLPAATAEGPAAVALAAPLAAPAFHRALNRQLSSGVSEIRQTADRWRVSLDVNHFAPEELTVKTKEGVVEITGKHEERQDEHGYISRCFTRKYTLPPGVDPTLVSSSLSPEGTLTVEAPLPKTATQSAEITIPVTFEARAQIGGQEAGKSEQSGAK |  | ~2 | binds | 16
3 | CgHspB1 with S15D mutation (natural protein, Chinese hamster (Cricetulus griseus), UniProt A0A8C2QII0 1-213, looked up, HspB1/Hsp27 of Chinese hamster (Cricetulus griseus), full-length gene from CHO cell cDNA, with S15D; Made by site-directed mutagenesis on pET23b-CgHspB1WT; also called CgHspB1S15D; CgHspBS15D; source: E. coli BL21 (DE3), pET23b, purified (DEAE, RESOURCE Q, Superdex 200)) MTERRVPFSLLRSPDWEPFRDWYPAHSRLFDQAFGVPRLPDEWSQWFSAAGWPGYVRPLPAATAEGPAAVALAAPLAAPAFHRALNRQLSSGVSEIRQTADRWRVSLDVNHFAPEELTVKTKEGVVEITGKHEERQDEHGYISRCFTRKYTLPPGVDPTLVSSSLSPEGTLTVEAPLPKTATQSAEITIPVTFEARAQIGGQEAGKSEQSGAK |  | ~2 |  | 
